Results from paper PMC3046773 (Life sciences, 2010).

Target: T1, PGIS–CFP (human, UniProt Q16647 1-500)
T1 sequence (looked up): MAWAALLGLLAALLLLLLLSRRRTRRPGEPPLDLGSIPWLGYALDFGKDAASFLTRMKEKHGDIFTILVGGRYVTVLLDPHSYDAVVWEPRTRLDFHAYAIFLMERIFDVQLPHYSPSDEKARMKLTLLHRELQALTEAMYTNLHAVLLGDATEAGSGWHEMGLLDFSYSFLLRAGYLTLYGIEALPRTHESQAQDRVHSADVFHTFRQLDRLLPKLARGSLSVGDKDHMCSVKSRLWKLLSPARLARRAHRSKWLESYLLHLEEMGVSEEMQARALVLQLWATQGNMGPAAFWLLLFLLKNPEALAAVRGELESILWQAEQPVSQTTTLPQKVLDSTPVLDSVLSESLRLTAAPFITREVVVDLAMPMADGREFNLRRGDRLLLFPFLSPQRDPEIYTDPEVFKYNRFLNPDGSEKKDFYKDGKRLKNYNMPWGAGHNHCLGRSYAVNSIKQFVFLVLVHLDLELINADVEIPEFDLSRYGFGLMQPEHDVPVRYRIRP
Assay: FRET or BRET

B1: COX-2-RFP (enzyme, human, UniProt P35354 18-604, looked up)
chain: ANPCCSHPCQNRGVCMSVGFDQYKCDCTRTGFYGENCSTPEFLTRIKLFLKPTPNTVHYILTHFKGFWNVVNNIPFLRNAIMSYVLTSRSHLIDSPPTYNADYGYKSWEAFSNLSYYTRALPPVPDDCPTPLGVKGKKQLPDSNEIVEKLLLRRKFIPDPQGSNMMFAFFAQHFTHQFFKTDHKRGPAFTNGLGHGVDLNHIYGETLARQRKLRLFKDGKMKYQIIDGEMYPPTVKDTQAEMIYPPQVPEHLRFAVGQEVFGLVPGLMMYATIWLREHNRVCDVLKQEHPEWGDEQLFQTSRLILIGETIKIVIEDYVQHLSGYHFKLKFDPELLFNKQFQYQNRIAAEFNTLYHWHPLLPDTFQIHDQKYNYQQFIYNNSILLEHGITQFVESFTRQIAGRVAGGRNVPPAVQKVSQASIDQSRQMKYQSFNEYRKRFMLKPYESFEELTGEKEMSAELEALYGDIDAVELYPALLVEKPRPDAIFGETMVEVGAPFSLKGLMGNVICSPAYWKPSTFGGEVGFQIINTASIQSLICNNVKGCPFTSFSVPDPELIKTVTINASSSRSGLDDINPTVLLKERSTEL
- FRET intensity relative to COX-1-RFP with PGIS–CFP: 2 fold
